Measurements reported in PMC7440162 (Cell, 2020).

Assays:
[1] = molecular target: T1, PTPRF ECD-Fc (human, UniProt P10586 30-1263); assay: SPR
T1 sequence: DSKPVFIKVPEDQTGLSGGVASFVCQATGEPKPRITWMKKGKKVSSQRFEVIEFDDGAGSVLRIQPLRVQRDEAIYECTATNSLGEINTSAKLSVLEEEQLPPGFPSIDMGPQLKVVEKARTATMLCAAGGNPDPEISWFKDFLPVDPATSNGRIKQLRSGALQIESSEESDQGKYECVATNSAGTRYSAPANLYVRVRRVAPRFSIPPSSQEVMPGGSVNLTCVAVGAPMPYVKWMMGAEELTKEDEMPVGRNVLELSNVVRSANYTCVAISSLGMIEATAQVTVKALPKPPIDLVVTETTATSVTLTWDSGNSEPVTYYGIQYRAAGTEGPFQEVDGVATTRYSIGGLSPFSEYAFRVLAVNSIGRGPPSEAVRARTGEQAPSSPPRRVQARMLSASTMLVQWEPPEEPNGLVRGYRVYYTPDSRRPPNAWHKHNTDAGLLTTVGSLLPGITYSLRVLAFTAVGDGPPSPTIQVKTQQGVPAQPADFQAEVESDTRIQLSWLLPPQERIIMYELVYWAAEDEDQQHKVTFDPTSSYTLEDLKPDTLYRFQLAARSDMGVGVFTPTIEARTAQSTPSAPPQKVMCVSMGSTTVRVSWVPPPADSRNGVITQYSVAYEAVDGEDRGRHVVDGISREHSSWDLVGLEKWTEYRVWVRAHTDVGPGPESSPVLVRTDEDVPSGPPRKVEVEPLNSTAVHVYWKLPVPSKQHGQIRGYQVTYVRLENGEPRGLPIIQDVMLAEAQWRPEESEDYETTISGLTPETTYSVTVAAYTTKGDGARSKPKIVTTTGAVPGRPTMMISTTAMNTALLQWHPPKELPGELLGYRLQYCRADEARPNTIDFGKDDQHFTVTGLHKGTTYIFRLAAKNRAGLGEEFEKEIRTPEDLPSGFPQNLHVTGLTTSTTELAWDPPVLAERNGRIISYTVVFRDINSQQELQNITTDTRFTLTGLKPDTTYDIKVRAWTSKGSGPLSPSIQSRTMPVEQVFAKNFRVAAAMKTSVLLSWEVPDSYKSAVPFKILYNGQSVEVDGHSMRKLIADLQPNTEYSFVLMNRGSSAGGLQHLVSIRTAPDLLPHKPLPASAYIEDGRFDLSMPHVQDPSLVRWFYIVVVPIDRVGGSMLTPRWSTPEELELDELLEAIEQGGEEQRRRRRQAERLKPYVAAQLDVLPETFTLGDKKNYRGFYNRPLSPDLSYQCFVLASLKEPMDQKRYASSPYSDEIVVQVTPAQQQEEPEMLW

[2] = molecular target: T2, PTPRS ECD-Fc (human, UniProt Q13332 30-1282); assay: SPR
T2 sequence: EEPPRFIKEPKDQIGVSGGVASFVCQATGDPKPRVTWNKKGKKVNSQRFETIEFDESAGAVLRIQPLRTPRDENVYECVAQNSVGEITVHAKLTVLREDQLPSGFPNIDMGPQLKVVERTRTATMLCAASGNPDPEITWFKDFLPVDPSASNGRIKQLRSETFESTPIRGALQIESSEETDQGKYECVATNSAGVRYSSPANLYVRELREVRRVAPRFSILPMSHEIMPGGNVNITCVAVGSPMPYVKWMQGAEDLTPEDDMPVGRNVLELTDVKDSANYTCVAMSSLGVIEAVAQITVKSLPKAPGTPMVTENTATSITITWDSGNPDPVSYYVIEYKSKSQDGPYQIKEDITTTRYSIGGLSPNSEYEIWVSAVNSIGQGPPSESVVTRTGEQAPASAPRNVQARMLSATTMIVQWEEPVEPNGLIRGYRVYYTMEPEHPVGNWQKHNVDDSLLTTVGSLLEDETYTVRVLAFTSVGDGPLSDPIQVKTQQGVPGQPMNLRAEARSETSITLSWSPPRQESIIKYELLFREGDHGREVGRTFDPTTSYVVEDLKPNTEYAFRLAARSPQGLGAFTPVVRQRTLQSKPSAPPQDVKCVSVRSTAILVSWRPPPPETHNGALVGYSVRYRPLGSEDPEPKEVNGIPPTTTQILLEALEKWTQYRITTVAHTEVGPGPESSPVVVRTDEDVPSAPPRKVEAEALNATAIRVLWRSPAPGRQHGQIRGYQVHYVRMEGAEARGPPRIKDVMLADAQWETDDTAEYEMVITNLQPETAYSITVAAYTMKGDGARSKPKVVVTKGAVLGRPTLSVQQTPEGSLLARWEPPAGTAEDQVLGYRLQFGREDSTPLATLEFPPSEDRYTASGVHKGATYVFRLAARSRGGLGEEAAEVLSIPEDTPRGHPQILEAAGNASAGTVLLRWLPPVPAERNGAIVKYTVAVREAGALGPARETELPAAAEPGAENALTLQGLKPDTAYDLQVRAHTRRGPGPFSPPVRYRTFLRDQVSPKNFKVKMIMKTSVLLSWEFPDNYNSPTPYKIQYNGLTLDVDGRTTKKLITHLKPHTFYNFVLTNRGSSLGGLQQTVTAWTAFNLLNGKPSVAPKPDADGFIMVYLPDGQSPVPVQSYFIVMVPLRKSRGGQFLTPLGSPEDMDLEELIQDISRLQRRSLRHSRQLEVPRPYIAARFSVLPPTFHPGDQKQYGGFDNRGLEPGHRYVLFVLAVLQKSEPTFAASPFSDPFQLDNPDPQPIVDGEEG

[3] = molecular target: T3, PTPRD ECD-Fc (human, UniProt P23468 21-1265); assay: ELISA
T3 sequence: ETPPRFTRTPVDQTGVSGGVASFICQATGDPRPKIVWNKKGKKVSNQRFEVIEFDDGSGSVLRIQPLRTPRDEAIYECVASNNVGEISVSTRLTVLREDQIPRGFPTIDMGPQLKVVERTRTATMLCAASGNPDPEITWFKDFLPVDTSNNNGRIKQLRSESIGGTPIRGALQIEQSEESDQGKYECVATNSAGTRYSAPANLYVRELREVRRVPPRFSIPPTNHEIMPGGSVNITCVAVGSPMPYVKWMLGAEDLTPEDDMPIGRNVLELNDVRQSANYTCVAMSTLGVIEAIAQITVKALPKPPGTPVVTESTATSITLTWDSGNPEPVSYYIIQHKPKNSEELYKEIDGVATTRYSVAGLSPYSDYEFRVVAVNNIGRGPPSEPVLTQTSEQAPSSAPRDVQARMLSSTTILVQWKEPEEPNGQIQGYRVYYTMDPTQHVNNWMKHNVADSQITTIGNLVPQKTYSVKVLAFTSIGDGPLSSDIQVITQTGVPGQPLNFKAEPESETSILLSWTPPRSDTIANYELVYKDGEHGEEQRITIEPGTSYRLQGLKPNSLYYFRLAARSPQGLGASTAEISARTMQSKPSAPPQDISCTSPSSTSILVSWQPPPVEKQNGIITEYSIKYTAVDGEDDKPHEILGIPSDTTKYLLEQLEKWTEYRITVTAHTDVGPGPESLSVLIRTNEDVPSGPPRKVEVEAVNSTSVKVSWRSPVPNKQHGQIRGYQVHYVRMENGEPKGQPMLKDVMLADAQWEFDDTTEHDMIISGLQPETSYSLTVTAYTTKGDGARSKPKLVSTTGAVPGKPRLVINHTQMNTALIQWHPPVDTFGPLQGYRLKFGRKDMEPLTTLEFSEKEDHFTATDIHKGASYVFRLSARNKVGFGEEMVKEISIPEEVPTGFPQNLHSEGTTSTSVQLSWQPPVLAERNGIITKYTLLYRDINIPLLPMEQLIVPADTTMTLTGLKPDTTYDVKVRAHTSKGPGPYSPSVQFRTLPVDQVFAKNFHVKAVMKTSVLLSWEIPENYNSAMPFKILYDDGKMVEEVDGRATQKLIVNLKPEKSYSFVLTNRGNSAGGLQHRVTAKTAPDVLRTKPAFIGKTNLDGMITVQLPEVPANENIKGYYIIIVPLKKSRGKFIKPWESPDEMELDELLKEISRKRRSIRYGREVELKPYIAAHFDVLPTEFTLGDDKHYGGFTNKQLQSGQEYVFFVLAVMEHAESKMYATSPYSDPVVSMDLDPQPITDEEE

Measured: binding result

B1: SALM2 ECD-Fc (Fc fusion)
chain: QPCPGRCICQNVAPTLTMLCAKTGLLFVPPAIDRRVVELRLTDNFIAAVRRRDFANMTSLVHLTLSRNTIGQVAAGAFADLRALRALHLDSNRLAEVRGDQLRGLGNLRHLILGNNQIRRVESAAFDAFLSTVEDLDLSYNNLEALPWEAVGQMVNLNTLTLDHNLIDHIAEGTFVQLHKLVRLDMTSNRLHKLPPDGLFLRSQGTGPKPPTPLTVSFGGNPLHCNCELLWLRRLTREDDLETCATPEHLTDRYFWSIPEEEFLCEPPLITRQAGGRALVVEGQAVSLRCRAVGDPEPVVHWVAPDGRLLGNSSRTRVRGDGTLDVTITTLRDSGTFTCIASNAAGEATAPVEVCVVPLPLMAPPPAAPPPLTEPGSSDIATPGRPGANDSAAERRLVAAELTSNSVLIRWPAQRPVPGIRMYQVQYNSSVDDSLVYRMIPSTSQTFLVNDLAAGRAYDLCVLAVYDDGATALPATRVVGCVQFTTAGDPAPCRPLRAHFLGGTM
modifications: biotin on the AviTag (as SPR ligand)
binds: [1] | [2] | [3]
